Experimental data taken from the MegaScale stability set (Tsuboyama et al. 2023).

B1: EEHEE_rd4_0763 (parent)
chain: LTVHVGNVTYHFDNPEQAEEWAKRMAKKYQGQIHVKDGQFRIE

Variants of: B1
Assay: folding stability dG (cDNA display proteolysis); higher = more stable
Settings: PBS, room temperature

| Variant | folding stability dG [kcal/mol] |
| --- | --- |
| LTVHVGNVTYHFDNPEQAEEWAKRMAQKYQGQIHVKDGQFRIE [K27Q] | 1.66 |
| LTVHVGNNTYHFDNPEQAEEWAKRMAKKYQGQIHVKDGQFRIE [V8N] | 1.41 |
| LTVHVGNFTYHFDNPEQAEEWAKRMAKKYQGQIHVKDGQFRIE [V8F] | 1.8 |
| LTVHVGNTTYHFDNPEQAEEWAKRMAKKYQGQIHVKDGQFRIE [V8T] | 1.53 |
| LTVHVGNGTYHFDNPEQAEEWAKRMAKKYQGQIHVKDGQFRIE [V8G] | 0.756 |
| LTVHVGNSTYHFDNPEQAEEWAKRMAKKYQGQIHVKDGQFRIE [V8S] | 1.37 |
| LTVHVGNQTYHFDNPEQAEEWAKRMAKKYQGQIHVKDGQFRIE [V8Q] | 1.58 |
| LTVHVGNVTYHFDNPEQAEEWAKRMAKKYQGQIHVKDGQIRIE [F40I] | 2.25 |
| LTVHVGNVTYHFDNPEQAEEWAKRMAKKYQGQIHVKDGQLRIE [F40L] | 2.01 |
| LTVHVGNVTYHFDNPEQAEEWAKRMAKKYQGQIHVKDGQERIE [F40E] | 1.15 |
| LTVHVGNVTYHFDNPEQAEEWAKRMAKKYQGQIHVKDGQGRIE [F40G] | 0.985 |
| LTVHVGNVTYHFDNPEQAEEWAKRMAKKYQGQIHVKDGQARIE [F40A] | 1.06 |
| LTVHVGNVTYHFDNPEQAEEWAKRMAKKYQGQIHVKDGQSRIE [F40S] | 1.03 |
| LTVHVGNVTYHFRNPEQAEEWAKRMAKKYQGQIHVKDGQFRIE [D13R] | 1.47 |
| LTVHVGNVTYHFINPEQAEEWAKRMAKKYQGQIHVKDGQFRIE [D13I] | 1.48 |
| LTVHVGNVTYHFTNPEQAEEWAKRMAKKYQGQIHVKDGQFRIE [D13T] | 1.74 |
| LTVHVGTVTYHFDNPEQAEEWAKRMAKKYQGQIHVKDGQFRIE [N7T] | 1.67 |
| LTVHVGHVTYHFDNPEQAEEWAKRMAKKYQGQIHVKDGQFRIE [N7H] | 1.69 |
| LTVHVGKVTYHFDNPEQAEEWAKRMAKKYQGQIHVKDGQFRIE [N7K] | 1.65 |
| LTVHVGFVTYHFDNPEQAEEWAKRMAKKYQGQIHVKDGQFRIE [N7F] | 1.62 |

| Variant | folding stability dG [kcal/mol] |
| --- | --- |
| LTVHVGNVTYHFDNPEVAEEWAKRMAKKYQGQIHVKDGQFRIE [Q17V] | 1.57 |
| LTVHVGNVTYHFDNPESAEEWAKRMAKKYQGQIHVKDGQFRIE [Q17S] | 1.64 |
| LTVHVGNVTYHFDNPEQAEEWAMRMAKKYQGQIHVKDGQFRIE [K23M] | 1.61 |
| LTVHVGNVTYHFDNPEQAEEWACRMAKKYQGQIHVKDGQFRIE [K23C] | 2.37 |
| LTVHVGNVTYHFDNPEQAEEWAGRMAKKYQGQIHVKDGQFRIE [K23G] | 1.02 |
| LTVHVGNVTYHFDNPEQAEEWAKRMAKKYQGQIHVKDGQFGIE [R41G] | 1.3 |
| LTVHVGNVTYHFDNPEQAEEWAKRMAKKYQGQIHVKDGQFHIE [R41H] | 2.48 |
| LTVHVGNVTYHFDNPEQAEEWAKRVAKKYQGQIHVKDGQFRIE [M25V] | 1.23 |
| LTVHVGNVTYHFDNPEQAEEWAKRTAKKYQGQIHVKDGQFRIE [M25T] | 0.731 |
| LTVHVGNVTYHFDNPEQAEEWAKRWAKKYQGQIHVKDGQFRIE [M25W] | 1.34 |
| LTVHVGNVTYHFDNPEQAEEWAKRLAKKYQGQIHVKDGQFRIE [M25L] | 1.52 |
| LTVHVGNVTYHFDNPEQAEEWAKRMAKKYMGQIHVKDGQFRIE [Q30M] | 1.59 |
| LTVHVGNVTYHFDNPEQAEEWAKRMAKKYVGQIHVKDGQFRIE [Q30V] | 1.23 |
| LTVHVGNVTYHFDNPEQAEEWAKRMAKKYPGQIHVKDGQFRIE [Q30P] | 1.19 |
| LTVHVGNVTYHFDNPEQAEFWAKRMAKKYQGQIHVKDGQFRIE [E20F] | 1.57 |
| LTVHVGNVTYHFDNPEQAESWAKRMAKKYQGQIHVKDGQFRIE [E20S] | 1.62 |
| LTVHVGNVTYHADNPEQAEEWAKRMAKKYQGQIHVKDGQFRIE [F12A] | 0.274 |
| LTVHVGNVTYHTDNPEQAEEWAKRMAKKYQGQIHVKDGQFRIE [F12T] | -0.063 |
| LTVHVGNVTYHDDNPEQAEEWAKRMAKKYQGQIHVKDGQFRIE [F12D] | -0.211 |
| LTVHVGNVTYHSDNPEQAEEWAKRMAKKYQGQIHVKDGQFRIE [F12S] | 0.081 |

| Variant | folding stability dG [kcal/mol] |
| --- | --- |
| LTVHVGNVTYHNDNPEQAEEWAKRMAKKYQGQIHVKDGQFRIE [F12N] | -0.088 |
| LTVHVGNVTYHFDNPEQPEEWAKRMAKKYQGQIHVKDGQFRIE [A18P] | -0.12 |
| LTVHVGNVTYHFDNPEQSEEWAKRMAKKYQGQIHVKDGQFRIE [A18S] | 0.551 |
| LTVHVGNVTYHFDNPEQWEEWAKRMAKKYQGQIHVKDGQFRIE [A18W] | 1.11 |
| LTVHVGNVTYHFDNPEQYEEWAKRMAKKYQGQIHVKDGQFRIE [A18Y] | 1.17 |
| LTVHVGNVTYHFDNPEQAEEWAKRMAKKYQGQSHVKDGQFRIE [I33S] | 0.865 |
| LTVHVGNVTYHFDNPEQAEEWAKRMAKKYQGQVHVKDGQFRIE [I33V] | 1.59 |
| LTCHVGNVTYHFDNPEQAEEWAKRMAKKYQGQIHVKDGQFRIE [V3C] | 1.34 |
| LTAHVGNVTYHFDNPEQAEEWAKRMAKKYQGQIHVKDGQFRIE [V3A] | 0.668 |
| LTKHVGNVTYHFDNPEQAEEWAKRMAKKYQGQIHVKDGQFRIE [V3K] | 0.424 |
| LTLHVGNVTYHFDNPEQAEEWAKRMAKKYQGQIHVKDGQFRIE [V3L] | 1.06 |
| LTVHVGNVTYHFDNPEQAEEWAKKMAKKYQGQIHVKDGQFRIE [R24K] | 1.63 |
| LTVHVGNVTYHFDNLEQAEEWAKRMAKKYQGQIHVKDGQFRIE [P15L] | 1.86 |
| YTVHVGNVTYHFDNPEQAEEWAKRMAKKYQGQIHVKDGQFRIE [L1Y] | 2.92 |
| STVHVGNVTYHFDNPEQAEEWAKRMAKKYQGQIHVKDGQFRIE [L1S] | 2.03 |
| KTVHVGNVTYHFDNPEQAEEWAKRMAKKYQGQIHVKDGQFRIE [L1K] | 1.51 |
| LTVHVGNVTYHFDNPEQAEEWAKRMAKKYQGQITVKDGQFRIE [H34T] | 2.03 |
| LTVHVGNVTYHFDNPEQAEEWAKRMAKKYQGQIHVKDGNFRIE [Q39N] | 1.66 |
| LTVHTGNVTYHFDNPEQAEEWAKRMAKKYQGQIHVKDGQFRIE [V5T] | 0.582 |
